What is called Kd is the free concentration of one partner at which half of the binding sites on the other are occupied at equilibrium, for simple one-to-one binding. One may read the koff as the rate constant with which the complex falls apart. A word on the kon: it is the rate constant with which the complex forms.

To fix the notation:
B1: anti-MASP-2 antibody clone 3E10 (chimeric 3E10) (antibody, V domains shown)
VH: EVQLQQSGPGLVQSSQSLSITCTVSGFSLTTYGVHWVRLSPGKGLEWLGVIWKGGSTDYNAAFMSRLSITKDNSKSEVFFQMNSLQGDDSAIYYCVKTLELRRRDYYAMDYWGQGTSVTVSS
VL: DIVMTQTTSSLAVSAGEKVTMSCKSSQNILYSSNQKNLLAWYQQKPGQSPKLLIYWASTRESGVPNRFTGSGSGTDFSLTINSVQPEDLAVYYCHQYFSSYTFGGGTKLEMK
notes: Mouse variable regions; tested as a 'chimeric' antibody; also called 3E10-mus
B2: 3E10-hu-9 (antibody, V domains shown)
VH: QVQLVESGGGVVQPGRSLRLSCAASGFSLTTYGVHWVRQAPGKGLEWLGVIWKGGSTDYNAAFMSRLTISKDNSKSTVYIQMNSLRAEDTAVYYCAKTLELRRRDYYAMDYWGQGTLVTVSS
VL: DIVMTQSPDSLAVSLGERATINCKSSQNILYSSNQKNLLAWYQQKPGQPPKLLIYWASTRESGVPDRFSGSGSGTDFTLTISSLQAEDVAVYYCHQYFSSYTFGQGTKLEIK
notes: also called humanized 3E10 clone with 3E10-hu-VH-9
B3: 3E10-hu-7-1 (antibody, V domains shown)
VH: QVQLVESGGGVVQPGRSLRLSCAASGFTLSTYGVHWVRQAPGKGLEWLGVIWKGGSTDYNAAFMSRLTISKDNSKSTVYIQMNSLRAEDTAVYYCAKTLELRRRDYYAMDYWGQGTLVTVSS
VL: DIVMTQSPDSLAVSLGERATINCKSSQNILYSSNQKNLLAWYQQKPGQPPKLLIYWASTRESGVPDRFSGSGSGTDFTLTISSLQAEDVAVYYCHQYFSSYTFGQGTKLEIK
notes: also called humanized 3E10 clone with 3E10-hu-VH-7-1
B4: 3E10-hu-0 (antibody, V domains shown)
VH: QVQLVESGGGVVQPGRSLRLSCAASGFTFSTYGVHWVRQAPGKGLEWVAVIWKGGSTDYNAAFMSRFTISRDNSKNTIYIQMNSLRAEDTAVYYCAKTLELRRRDYYAMDYWGQGTLVTVSS
VL: DIVMTQSPDSLAVSLGERATINCKSSQNILYSSNQKNLLAWYQQKPGQPPKLLIYWASTRESGVPDRFSGSGSGTDFTLTISSLQAEDVAVYYCHQYFSSYTFGQGTKLEIK
notes: also called humanized 3E10 clone with 3E10-hu-VH-0
B5: 3E10-hu-12 (antibody, V domains shown)
VH: QVQLVESGGGVVQPGRSLRISCAVSGFSLTTYGVHWVRQAPGKGLEWLGVIWKGGSTDYNAAFMSRLTISKDNSKSTVYIQMNSLRAEDTAVYYCVKTLELRRRDYYAMDYWGQGTLVTVSS
VL: DIVMTQSPDSLAVSLGERATINCKSSQNILYSSNQKNLLAWYQQKPGQPPKLLIYWASTRESGVPDRFSGSGSGTDFTLTISSLQAEDVAVYYCHQYFSSYTFGQGTKLEIK
notes: also called humanized 3E10 clone with 3E10-hu-VH-12
B6: 3E10-hu-7-2 (antibody, V domains shown)
VH: QVQLVESGGGVVQPGRSLRLSCAASGFTLSTYGVHWVRQAPGKGLEWLGVIWKGGSTDYNAAFMSRLTISKDNSKNTVYIQMNSLRAEDTAVYYCVKTLELRRRDYYAMDYWGQGTLVTVSS
VL: DIVMTQSPDSLAVSLGERATINCKSSQNILYSSNQKNLLAWYQQKPGQPPKLLIYWASTRESGVPDRFSGSGSGTDFTLTISSLQAEDVAVYYCHQYFSSYTFGQGTKLEIK
notes: also called humanized 3E10 clone with 3E10-hu-VH-7-2
B7: 3E10-hu-11 (antibody, V domains shown)
VH: QVQLVESGGGVVQPGRSLRISCAASGFSLTTYGVHWVRQAPGKGLEWLGVIWKGGSTDYNAAFMSRLTISKDNSKSTVYIQMNSLRAEDTAVYYCVKTLELRRRDYYAMDYWGQGTLVTVSS
VL: DIVMTQSPDSLAVSLGERATINCKSSQNILYSSNQKNLLAWYQQKPGQPPKLLIYWASTRESGVPDRFSGSGSGTDFTLTISSLQAEDVAVYYCHQYFSSYTFGQGTKLEIK
notes: also called humanized 3E10 clone with 3E10-hu-VH-11
B8: 3E10-hu-8 (antibody, V domains shown)
VH: QVQLVESGGGVVQPGRSLRLSCAASGFSLTTYGVHWVRQAPGKGLEWLGVIWKGGSTDYNAAFMSRLTISKDNSKNTVYIQMNSLRAEDTAVYYCAKTLELRRRDYYAMDYWGQGTLVTVSS
VL: DIVMTQSPDSLAVSLGERATINCKSSQNILYSSNQKNLLAWYQQKPGQPPKLLIYWASTRESGVPDRFSGSGSGTDFTLTISSLQAEDVAVYYCHQYFSSYTFGQGTKLEIK
notes: also called humanized 3E10 clone with 3E10-hu-VH-8
B9: 3E10-hu-10 (antibody, V domains shown)
VH: QVQLVESGGGVVQPGRSLRLSCAASGFSLTTYGVHWVRQAPGKGLEWLGVIWKGGSTDYNAAFMSRLTISKDNSKSTVYIQMNSLRAEDTAVYYCVKTLELRRRDYYAMDYWGQGTLVTVSS
VL: DIVMTQSPDSLAVSLGERATINCKSSQNILYSSNQKNLLAWYQQKPGQPPKLLIYWASTRESGVPDRFSGSGSGTDFTLTISSLQAEDVAVYYCHQYFSSYTFGQGTKLEIK
notes: also called humanized 3E10 clone with 3E10-hu-VH-10
B10: 3E10-hu-6 (antibody, V domains shown)
VH: QVQLVESGGGVVQPGRSLRLSCAASGFTLSTYGVHWVRQAPGKGLEWLGVIWKGGSTDYNAAFMSRLTISKDNSKNTVYIQMNSLRAEDTAVYYCAKTLELRRRDYYAMDYWGQGTLVTVSS
VL: DIVMTQSPDSLAVSLGERATINCKSSQNILYSSNQKNLLAWYQQKPGQPPKLLIYWASTRESGVPDRFSGSGSGTDFTLTISSLQAEDVAVYYCHQYFSSYTFGQGTKLEIK
notes: also called humanized 3E10 clone with 3E10-hu-VH-6

In the first assay the target is T1, recombinant human MASP-2 protein (human, UniProt O00187 16-686). The assay is described as follows: cell-based or functional assay.
T1 sequence (O00187 16-686): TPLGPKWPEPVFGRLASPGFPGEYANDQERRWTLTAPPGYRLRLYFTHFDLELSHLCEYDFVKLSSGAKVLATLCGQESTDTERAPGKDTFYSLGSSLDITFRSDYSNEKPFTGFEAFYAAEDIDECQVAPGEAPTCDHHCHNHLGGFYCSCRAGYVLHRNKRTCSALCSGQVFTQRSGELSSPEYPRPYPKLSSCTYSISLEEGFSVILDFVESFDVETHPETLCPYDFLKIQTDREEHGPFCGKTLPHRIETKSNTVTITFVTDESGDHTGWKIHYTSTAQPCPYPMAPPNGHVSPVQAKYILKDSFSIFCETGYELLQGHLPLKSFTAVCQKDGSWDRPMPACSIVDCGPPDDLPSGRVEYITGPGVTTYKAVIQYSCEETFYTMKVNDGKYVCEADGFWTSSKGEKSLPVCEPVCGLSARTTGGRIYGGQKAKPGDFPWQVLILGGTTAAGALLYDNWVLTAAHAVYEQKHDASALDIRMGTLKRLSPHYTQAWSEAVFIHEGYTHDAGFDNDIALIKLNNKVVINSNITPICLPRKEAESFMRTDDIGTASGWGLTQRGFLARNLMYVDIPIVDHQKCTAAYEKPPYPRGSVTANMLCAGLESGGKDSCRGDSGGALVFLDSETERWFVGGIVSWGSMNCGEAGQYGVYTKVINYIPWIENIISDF
For B1, the “IC50 of C3 activation (mannan-coated plate, human serum)” value is 4.14 ng/mL; the “IC50 of C4 activation (mannan-coated plate, human serum)” value was 3.6 ng/mL; the “IC50 of C4 activation in 5% human serum” value was 8.26 ng/mL; the “IC50 of C4 activation in 10% human serum (methods say 25%)” value worked out at 30.8 ng/mL. Moreover, the “IC50 of C4 activation in 50% human serum” value came to 67.3 ng/mL and the “IC50 of MAC activation (mannan-coated plate, human serum)” value was found to be 3.27 ng/mL.

The next assay addresses T1, recombinant human MASP-2 protein. Put plainly: BLI (Gator), antibody on Protein A biosensor, human MASP-2, 30 C. Here is the method: The assay was performed at 30° C. and the kinetics buffer was 1×PBS (136 mM NaCl, 8 mM […], 2 mM KH₂PO₄, 2.6 mM KCl) with 0.1% BSA and 0.005% Tween-20, pH7.4. Diluted antibodies and human MASP-2 were added to the corresponding well. After loading human MASP-2, biosensor detected the association and dissociation of antibodies. The regeneration of biosensors was in buffer 10 mM glycine, pH2.0.
For B1, the Kd was 15.4 nM, the koff is 0.00113 s⁻¹ and the kon is 73500 M⁻¹ s⁻¹.
As for B2, the Kd was determined as 12.8 nM, the koff stood at 0.000952 s⁻¹ and the kon worked out at 74200 M⁻¹ s⁻¹.
Consider B3, for which the Kd turned out to be 17.3 nM, the koff is 0.00114 s⁻¹ and the kon is 65700 M⁻¹ s⁻¹.
Turning to B4, the Kd amounted to 26.3 nM, the koff was found to be 0.00102 s⁻¹ and the kon came out at 38700 M⁻¹ s⁻¹.
Consider B5, for which the Kd stood at 14.3 nM, the koff stood at 0.00103 s⁻¹ and the kon stood at 72300 M⁻¹ s⁻¹.
As to B6, the Kd amounted to 14.7 nM, the koff is 0.00107 s⁻¹ and the kon was found to be 72900 M⁻¹ s⁻¹.
Consider B7, for which the Kd worked out at 13.7 nM, the koff is 0.00107 s⁻¹ and the kon is 77700 M⁻¹ s⁻¹.
With B8, the Kd turned out to be 15.6 nM, the koff stood at 0.00107 s⁻¹ and the kon was 68600 M⁻¹ s⁻¹.
Taken in the same sequence, the figures for B9 were 15.3 nM, 0.00111 s⁻¹ and 72800 M⁻¹ s⁻¹.
On to B10, for which the Kd is 15.2 nM, the dissociation rate constant (koff) stood at 0.000985 s⁻¹ and the kon amounted to 64600 M⁻¹ s⁻¹.

A further assay shares this target. Put plainly: BLI (Gator), antibody on Protein A biosensor, recombinant MASP-2 25-200 nM, 30 C. Here is the method:
Recombinant MASP-2 protein was diluted with kinetics buffer to get a concentration gradient: 200 nM, 100 nM, 50 nM, 25 nM, and 0 nM (reference control). Antibodies were immobilized onto Protein A biosensor after balance. A baseline was detected for 60 seconds. Then, antibody-antigen association was detected for 120 seconds to obtain data for Kₒₙ, followed by detection of dissociation in kinetic buffer for 120 seconds to obtain data for Koff. The regeneration of biosensors was done in buffer 10 mM glycine, pH2.0. All the kinetics data were collected at 30° C. Data were acquired with Gator Bioanalysis System.
In the case of B1, the Kd is < 0.1 nM, the koff is < 1e-06 s⁻¹ and the kon is 29600 M⁻¹ s⁻¹.

For the origin of these results see US20250154284A1 (INMAGENE PTE, published 2025).
